{"source": "paper PMC6265302", "about": "“Widespread bacterial lysine degradation proceeding via glutarate and L-2-hydroxyglutarate” (Nature Communications, 2018)", "proteins": {"B1": {"name": "CsiD (carbon starvation induced protein D), glutarate hydroxylase (enzyme, Escherichia coli, UniProt P76621 1-325, looked up)", "chain": "MNALTAVQNNAVDSGQDYSGFTLTPSAQSPRLLELTFTEQTTKQFLEQVAEWPVQALEYKSFLRFRVAKILDDLCANQLQPLLLKTLLNRAEGALLINAVGVDDVKQADEMVKLATAVAHLIGRSNFDAMSGQYYARFVVKNVDNSDSYLRQPHRVMELHNDGTYVEEITDYVLMMKIDEQNMQGGNSLLLHLDDWEHLDNYFRHPLARRPMRFAAPPSKNVSKDVFHPVFDVDQQGRPVMRYIDQFVQPKDFEEGVWLSELSDAIETSKGILSVPVPVGKFLLINNLFWLHGRDRFTPHPDLRRELMRQRGYFAYASNHYQTHQ", "notes": "CsiD of Escherichia coli, ORF amplified from E. coli BW25113 and inserted into pET28a; crystals were apo or held glutarate, succinate or N-oxalylglycine; also called glutarate-2-hydroxylase; G-2-H; source: E. coli BL21 (DE3), purified (Ni-NTA)"}}, "molecular_target": "the molecule itself", "experiment": "crystal structure; CsiD at 13 mg/mL, sitting drop vapour diffusion, 18 °C; apo and with glutarate, succinate or N-oxalylglycine; symmetry P42(1)2, two copies in the asymmetric unit, tetramer generated by crystallographic symmetry"}
{"protein": "B1", "values": [{"measurement": "stoichiometry N", "value": 4}]}
